{"source": "patent US20180245075", "about": "“INTEGRATED SYSTEM FOR PROGRAMMABLE DNA METHYLATION” (Trustees of Boston University, published 2018)", "binders": {"B1": {"name": "ZF10-1 binding sequence (BS), arrayed in reporter (dsDNA)", "DNA 1": "CGGCGTAGCCGATGTCGCGC", "DNA 2": "GCGCGACATCGGCTACGCCG"}}, "key": {"ZF10-1-Dam(WT) writer": {"biological_target": "ZF10-1-Dam(WT) writer (synthetic; Escherichia coli Dam, UniProt P0AEE8 SEQ:21-472)", "assay": "cell_activity; with DpnI-VP64, episomal interspersed reporter", "conditions": "tags: NLS, ZF10-1 six-finger array fused to Dam", "procedure": "Reporter plasmid was co-transfected with Writer and Reader-Effector constructs, and single-cell GFP levels were measured with flow cytometry two days post-transfection. […] Specific constructs corresponding to the data below were: Reporter: [8XZF_14XGATC_interspersed] minimal CMV promoter; Writer: minCMV-ZF10-1-Dam (WT); and Reader-Effector: UBC-NLS-DpnI DBD-VP64.\nFlow cytometry measurements were performed using an Attune NxT Flow Cytometer (Thermo Fisher Scientific) equipped with a high-throughput auto-sampler. Typically, 50,000 or 70,000 events were acquired for transient transfection or stable cell line experiments, respectively. Cells were gated by forward (FSC) and side scatter (SSC) distributions, and either iRFP or mCherry expression for transfection- or integration-positive populations, respectively. For experiments with transient transfection of synI/synR modules (FIGS. 9A-9C), geometric means of the GFP fluorescence distributions were calculated using FLOWJO (Treestar Software). GFP fold change was then calculated by normalizing mean GFP intensity to reporter-only controls, unless otherwise noted. For spreading and memory experiments (with integrated constructs), the percentage of GFP activated cells was quantified using a GFP+gate that contains ˜0.5-1% of negative control cells (FIG. 17E). […]"}, "[1]": {"biological_target": "ZF10-1-Dam(N132A) writer (synI) (synthetic; Escherichia coli Dam, UniProt P0AEE8 SEQ:21-472)", "assay": "cell_activity; integrated Clustered Reporter, GATC 140 bp downstream, vs mCherry-Dam; ~6-fold on transient reporter (p253)", "conditions": "tags: NLS, ZF10-1 six-finger array fused to Dam", "procedure": "Fraction methylation was measured using m6A-qPCR at a single GATC site proximal to the ZF BS array in the singly integrated Clustered Reporter (6th site, 140 bp downstream from end of ZF array). (n=3; error bars, SD). […] (n=3; error bars, SD). […] Diagonal line represents no enrichment in ZF sequence-specific methylation over “background” methylation. Dam N132A and WT are marked in red and black, respectively. (n=3; error bars, SD). […] Cells were transfected with the indicated constructs: Interspersed Reporter only, ZF-VP64 constitutively expressed from pUBC, synI^NT (Dam WT) constitutively expressed from a strong promoter (pCLPIT with no Dox induction), synI^NT (Dam WT) constitutively expressed from a weak promoter (pMinCMV), and synI^NT (Dam N132A) constitutively expressed from a weak promoter (pMinCMV). Genomic DNA (gDNA) was isolated 2 days following transfection, digested with or without DpnII, run out on an agarose gel (top), and the bands used to quantify total fraction methylated DNA (bottom). Undigested bands appearing at the top of each lane in DpnII-treated samples represent methylated (protected) gDNA, while […] gDNA fragments that are digested by DpnII appear as a smear (from ˜0.3-2 kb). Total fraction methylated gDNA is calculated as undigested gDNA in DpnII-treated samples normalized by total gDNA. […]"}}, "data": [{"binder": "B1", "values": [{"measurement": "activity", "setting": "ZF10-1-Dam(WT) writer", "value": "> 100", "unit": "fold GFP activation"}, {"measurement": "activity", "setting": "[1]", "value": "~10", "unit": "fold m6A enrichment"}]}]}
